Measurements: patent US20160311870A1 (SWEDISH ORPHAN BIOVITRUM AB PUBL, published 2016)

Target: T1, human complement component 5 (C5) (human, UniProt P01031 19-673; P01031 678-1676)
T1 construct: Bought human C5 (Quidel Cat #403 / A403); also called human C5; hC5
Assay: BLI (ForteBio), compound captured on HSA sensor, human C5 in solution
Description: Human serum albumin was immobilized to Amine Reactive 2nd generation (AR2G) Dip and Read Biosensors (Pall Life sciences (ForteBio) Cat #18-5092) by amine coupling. […] Regeneration conditions for the sensors were 10 mM Glycine, pH 2 (three pulses with 30 seconds and running buffer for 60 seconds). Each spectrogram was reference subtracted against an analogous construct containing an albumin binding domain (SEQ ID NO: 250) but without the C5 binding capacity. The data were analyzed according to Langmuir 1:1 model using ForteBio Analysis 7.1 (Pall Life sciences (ForteBio) kinetics software).

Rel. KD (KD relative to PSI0242): 2.1
B1: PSI0383 (designed binder)
chain: AEAKYAKEVLEAWDEIDRLPNLTIEQWLAFINKLDRQPEQSSELLSEAKKLSESQAPKVEGSLAEAKEAANAELDSYGVSDFYKRLIDKAKTVEGVEALKDAILAALP
notes: N52S, D53E, D60E and loop changes D36R, D37Q, S39E against PSI0242
